Positions count from the first letter of the chain named.
B1: P1AE5739 (antibody, V domains shown)
VH: EVQLVESGGGVVQPGRSLRLSCAASGFSFSNYGMAWVRQAPGKGLEWVASISTGGGNTYYRDSVKGRFTISRDNAKNTLYLQMNSLRAEDTAVYYCTRHDRGGLYWGQGTMVTVSS
VL: DIVMTQSPLSLPVTPGEPASISCRSSKSLLHSNGITYVYWYLQKPGQSPQVLIYRMSNLASGVPDRFSGSGSGTDFTLKISRVEAEDVGVYHCGQLLENPYTFGQGTKLEIK
B2: P1AE5743 (antibody, V domains shown)
VH: B1 VH
VL: EIVLTQSPGTLSLSPGERATLSCRASKSLLHSNGITYVYWYQQKPGQAPRLLIYRMSNLASGIPDRFSGSGSGTDFTLTISRLEPEDFAVYHCGQLLENPYTFGQGTKLEIK
B3: P1AE5742 (antibody, V domains shown)
VH: B1 VH
VL: DIVMTQSPDSLAVSLGERATINCKSSKSLLHSNGITYVYWYQQKPGQPPKLLIYRMSNLASGVPDRFSGSGSGTDFTLTISSLQAEDVAVYHCGQLLENPYTFGQGTKLEIK
B4: P1AE5759 (antibody, V domains shown)
VH: B1 VH with V11L, R16G
VL: B2 VL
B5: P1AE5747 (antibody, V domains shown)
VH: B1 VH with E1Q, R61A, A75S
VL: B3 VL
B6: P1AE5753 (antibody, V domains shown)
VH: B1 VH with R61A
VL: B3 VL
B7: P1AE5745 (antibody, V domains shown)
VH: B1 VH with E1Q, R61A, A75S
VL: B1 VL with Q47K
B8: P1AE5738 (antibody, V domains shown)
VH: B1 VH with E1Q, A75S
VL: B2 VL
B9: P1AE5758 (antibody, V domains shown)
VH: B1 VH with V11L, R16G
VL: B3 VL
B10: P1AE5741 (antibody, V domains shown)
VH: B1 VH
VL: B1 VL with V51L, L59R
B11: P1AE5746 (antibody, V domains shown)
VH: B1 VH with E1Q, R61A, A75S
VL: B1 VL with V51L, L59R
B12: P1AE5735 (antibody, V domains shown)
VH: B1 VH with E1Q, A75S
VL: B1 VL with Q47K
B13: P1AE5752 (antibody, V domains shown)
VH: B1 VH with R61A
VL: B1 VL with V51L, L59R
B14: P1AE5734 (antibody, V domains shown)
VH: B1 VH with E1Q, A75S
VL: B1 VL
B15: P1AE5751 (antibody, V domains shown)
VH: B1 VH with R61A
VL: B1 VL with Q47K
B16: P1AE5750 (antibody, V domains shown)
VH: B1 VH with R61A
VL: B1 VL
B17: P1AE5744 (antibody, V domains shown)
VH: B1 VH with E1Q, R61A, A75S
VL: B1 VL
B18: P1AE5762 (antibody, V domains shown)
VH: B1 VH with V11L, R16G, R61A
VL: B1 VL with V51L, L59R
B19: P1AE5757 (antibody, V domains shown)
VH: B1 VH with V11L, R16G
VL: B1 VL with V51L, L59R
B20: P1AE5737 (antibody, V domains shown)
VH: B1 VH with E1Q, A75S
VL: B3 VL
B21: P1AE5755 (antibody, V domains shown)
VH: B1 VH with V11L, R16G
VL: B1 VL
B22: P1AE5760 (antibody, V domains shown)
VH: B1 VH with V11L, R16G, R61A
VL: B1 VL
B23: P1AE5740 (antibody, V domains shown)
VH: B1 VH
VL: B1 VL with Q47K
B24: P1AE5761 (antibody, V domains shown)
VH: B1 VH with V11L, R16G, R61A
VL: B1 VL with Q47K
B25: P1AE5763 (antibody, V domains shown)
VH: B1 VH with V11L, R16G, R61A
VL: B3 VL
B26: P1AE5749 (antibody, V domains shown)
VH: B1 VH with E1Q, R61A, A75S
VL: B2 VL
B27: P1AE5736 (antibody, V domains shown)
VH: B1 VH with E1Q, A75S
VL: B1 VL with V51L, L59R
B28: P1AE5756 (antibody, V domains shown)
VH: B1 VH with V11L, R16G
VL: B1 VL with Q47K
B29: P1AE5764 (antibody, V domains shown)
VH: B1 VH with V11L, R16G, R61A
VL: B2 VL
B30: P1AE5754 (antibody, V domains shown)
VH: B1 VH with R61A
VL: B2 VL

The binders below were run against human GPRC5D (human, UniProt Q9NZD1 1-345) (assay: cell-based or functional assay).
Chain of human GPRC5D (Q9NZD1 whole entry): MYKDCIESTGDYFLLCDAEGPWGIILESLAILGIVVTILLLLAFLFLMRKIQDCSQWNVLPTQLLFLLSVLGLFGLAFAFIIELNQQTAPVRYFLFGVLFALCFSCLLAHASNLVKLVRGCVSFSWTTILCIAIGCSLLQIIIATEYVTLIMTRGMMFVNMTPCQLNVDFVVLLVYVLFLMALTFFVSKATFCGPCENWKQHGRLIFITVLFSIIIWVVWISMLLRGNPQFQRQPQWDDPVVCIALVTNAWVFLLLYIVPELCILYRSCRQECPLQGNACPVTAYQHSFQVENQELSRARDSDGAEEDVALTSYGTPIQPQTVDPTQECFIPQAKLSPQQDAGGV

Row | CAR-J2 EC50 | Binder
1 | 0.0235 µg/mL | B1
2 | 0.583 µg/mL | B2
3 | 0.0619 µg/mL | B3
4 | 0.0157 µg/mL | B4
5 | 0.183 µg/mL | B5
6 | 0.03 µg/mL | B6
7 | 0.00162 µg/mL | B7
8 | 0.397 µg/mL | B8
9 | 0.19 µg/mL | B9
10 | 0.0014 µg/mL | B10
11 | 0.514 µg/mL | B11
12 | 0.0821 µg/mL | B12
13 | 0.509 µg/mL | B13
14 | 0.0415 µg/mL | B14
15 | 0.00644 µg/mL | B15
16 | 0.0206 µg/mL | B16
17 | 0.00363 µg/mL | B17
18 | 0.0842 µg/mL | B18
19 | 0.145 µg/mL | B19
20 | 0.00295 µg/mL | B20
21 | 0.152 µg/mL | B21
22 | 0.19 µg/mL | B22
23 | 0.00896 µg/mL | B23
24 | 0.0746 µg/mL | B24
25 | 0.00547 µg/mL | B25
26 | 0.0826 µg/mL | B26
27 | 0.00138 µg/mL | B27
28 | 0.17 µg/mL | B28
29 | 0.0782 µg/mL | B29
30 | 0.00889 µg/mL | B30

Reference: US20220411491A1 (Hoffmann-La Roche, published 2022)
